How the values were obtained:
HeLa Kyoto [1] = assay: solubility in G1/S (NP-40 vs SDS abundance) (log2 ratio); higher = more soluble; conditions: cell cycle stage: G1/S
HeLa Kyoto [2] = assay: thermal stability score vs G1/S (z-score of summed log2 fold changes over temperatures); higher = more thermally stable than in G1/S
HeLa Kyoto [3] = assay: melting temperature (median over replicates), in situ; higher = more thermally stable
HeLa Kyoto [4] = assay: solubility change mitosis vs G1/S (difference of NP-40 vs SDS log2 ratios) (log2 ratio difference); higher = more soluble in mitosis
[5] = cell cycle stage: early G1 (4.5 h after nocodazole release)
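Throughout, for melting temperature (median over replicates), in situ: HeLa Kyoto cells synchronized by double thymidine or nocodazole block, proteins quantified by TMT10plex mass spectrometry, three independent biological replicates.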
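Throughout, for solubility change mitosis vs G1/S (difference of NP-40 vs SDS log2 ratios): synchronized HeLa Kyoto cells (double thymidine block for G1/S, nocodazole release for mitosis), protein amounts in NP-40 versus SDS lysates quantified by mass spectrometry, three biological replicates.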
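Throughout, for solubility in G1/S (NP-40 vs SDS abundance): HeLa Kyoto cells arrested at G1/S by double thymidine block, proteins quantified by TMT10plex mass spectrometry in mild NP-40 versus SDS extracts, three biological replicates.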
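Throughout, for thermal stability score vs G1/S (z-score of summed log2 fold changes over temperatures): synchronized HeLa Kyoto cells, proteins quantified by TMT10plex mass spectrometry, three biological replicates, mitosis taken 0.5 h after nocodazole release, G1/S directly after double thymidine block.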

| Substance | solubility in G1/S (log2) (HeLa Kyoto [1]) | thermal stability score (HeLa Kyoto [2]; [5]) | thermal stability score (HeLa Kyoto [2]; cell cycle stage: mitosis) | melting temperature (HeLa Kyoto [3]; cell cycle stage: G1/S) [°C] | melting temperature (HeLa Kyoto [3]; cell cycle stage: mitosis) [°C] | solubility change mitosis (log2) (HeLa Kyoto [4]) |
| --- | --- | --- | --- | --- | --- | --- |
| MAMVSEFLKQAWFIENEEQEYVQTVKSSKGGPGSAVSPYPTFNPSSDVAALHKAIMVKGVDEATIIDILTKRNNAQRQQIKAAYLQETGKPLDETLKKALTGHLEEVVLALLKTPAQFDADELRAAMKGLGTDEDTLIEILASRTNKEIRDINRVYREELKRDLAKDITSDTSGDFRNALLSLAKGDRSEDFGVNEDLADSDARALYEAGERRKGTDVNVFNTILTTRSYPQLRRVFQKYTKYSKHDMNKVLDLELKGDIEKCLTAIVKCATSKPAFFAEKLHQAMKGVGTRHKALIRIMVSRSEIDMNDIKAFYQKMYGISLCQAILDETKGDYEKILVALCGGN [ANXA1] | 0.618 | 3.41 | 3.05 | 49.1 | 49.6 | 0.0587 |
| MFWKFDLNTTSHVDKLLDKEHVTLQELMDEDDILQECKAQNQKLLDFLCRQQCMEELVSLITQDPPLDMEEKVRFKYPNTACELLTCDVPQISDRLGGDESLLSLLYDFLDHEPPLNPLLASFFSKTIGNLIARKTEQVITFLKKKDKFISLVLKHIGTSALMDLLLRLVSCVEPAGLRQDVLHWLNEEKVIQRLVELIHPSQDEDRQSNASQTLCDIVRLGRDQGSQLQEALEPDPLLTALESQDCVEQLLKNMFDGDRTESCLVSGTQVLLTLLETRRVGTEGLVDSFSQGLERSYAVSSSVLHGIEPRLKDFHQLLLNPPKKKAILTTIGVLEEPLGNARLHGARLMAALLHTNTPSINQELCRLNTMDLLLDLFFKYTWNNFLHFQVELCIAAILSHAAREERTEASGSESRVEPPHENGNRSLETPQPAASLPDNTMVTHLFQKCCLVQRILEAWEANDHTQAAGGMRRGNMGHLTRIANAVVQNLERGPVQTHISEVIRGLPADCRGRWESFVEETLTETNRRNTVDLVSTHHLHSSSEDEDIEGAFPNELSLQQAFSDYQIQQMTANFVDQFGFNDEEFADQDDNINAPFDRIAEINFNIDADEDSPSAALFEACCSDRIQPFDDDEDEDIWEDSDTRCAARVMARPRFGAPHASESCSKNGPERGGQDGKASLEAHRDAPGAGAPPAPGKKEAPPVEGDSEGAMWTAVFDEPANSTPTAPGVVRDVGSSVWAAGTSAPEEKGWAKFTDFQPFCCSESGPRCSSPVDTECSHAEGSRSQGPEKASQASYFAVSPASPCAWNVCVTRKAPLLASDSSSSGGSHSEDGDQKAASAMDAVSRGPGREAPPLPTVARTEEAVGRVGCADSRLLSPACPAPKEVTAAPAVAVPPEATVAITTALSKAGPAIPTPAVSSALAVAVPLGPIMAVTAAPAMVATLGTVTKDGKTDAPPEGAALNGPV [PPP6R2] | 0.0656 | -0.206 | -1.5 | 54.5 | 52.8 | -0.119 |
| MSSEPPPPPQPPTHQASVGLLDTPRSRERSPSPLRGNVVPSPLPTRRTRTFSATVRASQGPVYKGVCKCFCRSKGHGFITPADGGPDIFLHISDVEGEYVPVEGDEVTYKMCSIPPKNEKLQAVEVVITHLAPGTKHETWSGHVISS [CARHSP1] | 0.691 | -0.479 | -0.699 | 54.7 | 55.2 | 0.089 |
| MASNMDREMILADFQACTGIENIDEAITLLEQNNWDLVAAINGVIPQENGILQSEYGGETIPGPAFNPASHPASAPTSSSSSAFRPVMPSRQIVERQPRMLDFRVEYRDRNVDVVLEDTCTVGEIKQILENELQIPVSKMLLKGWKTGDVEDSTVLKSLHLPKNNSLYVLTPDLPPPSSSSHAGALQESLNQNFMLIITHREVQREYNLNFSGSSTIQEVKRNVYDLTSIPVRHQLWEGWPTSATDDSMCLAESGLSYPCHRLTVGRRSSPAQTREQSEEQITDVHMVSDSDGDDFEDATEFGVDDGEVFGMASSALRKSPMMPENAENEGDALLQFTAEFSSRYGDCHPVFFIGSLEAAFQEAFYVKARDRKLLAIYLHHDESVLTNVFCSQMLCAESIVSYLSQNFITWAWDLTKDSNRARFLTMCNRHFGSVVAQTIRTQKTDQFPLFLIIMGKRSSNEVLNVIQGNTTVDELMMRLMAAMEIFTAQQQEDIKDEDEREARENVKREQDEAYRLSLEADRAKREAHEREMAEQFRLEQIRKEQEEEREAIRLSLEQALPPEPKEENAEPVSKLRIRTPSGEFLERRFLASNKLQIVFDFVASKGFPWDEYKLLSTFPRRDVTQLDPNKSLLEVKLFPQETLFLEAKE [FAF1] | 0.0926 | 0.291 | 1.77 | 53.6 | 53.5 | -0.147 |
| PLXNA1 | -0.0498 | -1.69 | -1.65 | 53.8 | 52.5 | 0.0188 |
